T1: human amylin receptor (amylin 3(a) receptor: human calcitonin receptor with RAMP-3) (human, UniProt P30988 25-474; O60896 24-148)
T1 construct: whole, on cells; also called hAmylin-R; hAmylinR
T1 sequence (looked up) 1: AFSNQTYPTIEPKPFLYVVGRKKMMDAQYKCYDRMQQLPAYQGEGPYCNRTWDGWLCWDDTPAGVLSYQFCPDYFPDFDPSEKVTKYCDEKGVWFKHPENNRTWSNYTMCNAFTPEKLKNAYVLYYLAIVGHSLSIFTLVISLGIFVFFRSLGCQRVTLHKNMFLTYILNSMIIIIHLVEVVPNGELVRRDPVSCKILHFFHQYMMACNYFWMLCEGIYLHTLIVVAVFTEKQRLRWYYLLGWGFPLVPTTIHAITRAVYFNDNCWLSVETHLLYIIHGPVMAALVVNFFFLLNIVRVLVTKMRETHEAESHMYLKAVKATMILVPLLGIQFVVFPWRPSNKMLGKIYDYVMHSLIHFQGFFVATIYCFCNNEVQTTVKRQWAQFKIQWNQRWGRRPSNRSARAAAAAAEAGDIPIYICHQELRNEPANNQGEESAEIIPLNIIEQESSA
T1 sequence (looked up) 2: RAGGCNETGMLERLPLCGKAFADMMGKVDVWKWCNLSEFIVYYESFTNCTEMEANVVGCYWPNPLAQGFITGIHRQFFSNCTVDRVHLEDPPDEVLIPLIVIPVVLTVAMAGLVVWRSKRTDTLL

B1: N^ε1-[2-[2-[2-(19-carboxynonadecanoylamino)ethoxy]ethoxy]acetyl]-[Arg17,Pro21,Pro27,His34]-h-amylin (peptide)
peptide: K([AEEA-C20 diacid])CNTATCATQRLANFLRHSSPNFGAIPSSTNVGHNTY-NH2
modifications: disulfide 2-7; N-terminus assumed
SMILES: CC[C@H](C)[C@H](NC(=O)[C@H](C)NC(=O)CNC(=O)[C@H](Cc1ccccc1)NC(=O)[C@H](CC(N)=O)NC(=O)[C@@H]1CCCN1C(=O)[C@H](CO)NC(=O)[C@H](CO)NC(=O)[C@H](Cc1c[nH]cn1)NC(=O)[C@H](CCCNC(=N)N)NC(=O)[C@H](CC(C)C)NC(=O)[C@H](Cc1ccccc1)NC(=O)[C@H](CC(N)=O)NC(=O)[C@H](C)NC(=O)[C@H](CC(C)C)NC(=O)[C@H](CCCNC(=N)N)NC(=O)[C@H](CCC(N)=O)NC(=O)[C@@H](NC(=O)[C@H](C)NC(=O)[C@@H]1CSSC[C@H](NC(=O)[C@@H](N)CCCCNC(=O)COCCOCCNC(=O)CCCCCCCCCCCCCCCCCCC(=O)O)C(=O)N[C@@H](CC(N)=O)C(=O)N[C@@H]([C@@H](C)O)C(=O)N[C@@H](C)C(=O)N[C@@H]([C@@H](C)O)C(=O)N1)[C@@H](C)O)C(=O)N1CCC[C@H]1C(=O)N[C@@H](CO)C(=O)N[C@@H](CO)C(=O)N[C@H](C(=O)N[C@@H](CC(N)=O)C(=O)N[C@H](C(=O)NCC(=O)N[C@@H](Cc1c[nH]cn1)C(=O)N[C@@H](CC(N)=O)C(=O)N[C@H](C(=O)N[C@@H](Cc1ccc(O)cc1)C(N)=O)[C@@H](C)O)C(C)C)[C@@H](C)O
notes: also called 91; compound 91
B2: N^ε1-[2-[2-[2-[[2-[2-[2-[[(4S)-4-carboxy-4-(19-carboxynonadecanoylamino)butanoyl]amino]ethoxy]ethoxy]acetyl]amino]ethoxy]ethoxy]acetyl]-[Arg17,Pro21,Pro27,Arg34 … (peptide)
peptide: K([AEEA-AEEA-γGlu-C20 diacid])CNTATCATQRLANFLRHSSPNFGAIPSSTNVGRNTY-NH2
modifications: disulfide 2-7; N-terminus assumed
SMILES: CC[C@H](C)[C@H](NC(=O)[C@H](C)NC(=O)CNC(=O)[C@H](Cc1ccccc1)NC(=O)[C@H](CC(N)=O)NC(=O)[C@@H]1CCCN1C(=O)[C@H](CO)NC(=O)[C@H](CO)NC(=O)[C@H](Cc1c[nH]cn1)NC(=O)[C@H](CCCNC(=N)N)NC(=O)[C@H](CC(C)C)NC(=O)[C@H](Cc1ccccc1)NC(=O)[C@H](CC(N)=O)NC(=O)[C@H](C)NC(=O)[C@H](CC(C)C)NC(=O)[C@H](CCCNC(=N)N)NC(=O)[C@H](CCC(N)=O)NC(=O)[C@@H](NC(=O)[C@H](C)NC(=O)[C@@H]1CSSC[C@H](NC(=O)[C@@H](N)CCCCNC(=O)COCCOCCNC(=O)COCCOCCNC(=O)CC[C@H](NC(=O)CCCCCCCCCCCCCCCCCCC(=O)O)C(=O)O)C(=O)N[C@@H](CC(N)=O)C(=O)N[C@@H]([C@@H](C)O)C(=O)N[C@@H](C)C(=O)N[C@@H]([C@@H](C)O)C(=O)N1)[C@@H](C)O)C(=O)N1CCC[C@H]1C(=O)N[C@@H](CO)C(=O)N[C@@H](CO)C(=O)N[C@H](C(=O)N[C@@H](CC(N)=O)C(=O)N[C@H](C(=O)NCC(=O)N[C@@H](CCCNC(=N)N)C(=O)N[C@@H](CC(N)=O)C(=O)N[C@H](C(=O)N[C@@H](Cc1ccc(O)cc1)C(N)=O)[C@@H](C)O)C(C)C)[C@@H](C)O
notes: also called 95; compound 95
B3: N^ε1-[2-[2-[2-(19-carboxynonadecanoylamino)ethoxy]ethoxy]acetyl]-[His14,Arg17,Pro21,Pro27]-h-amylin (peptide)
peptide: K([AEEA-C20 diacid])CNTATCATQRLAHFLRHSSPNFGAIPSSTNVGSNTY-NH2
modifications: disulfide 2-7; N-terminus assumed
SMILES: CC[C@H](C)[C@H](NC(=O)[C@H](C)NC(=O)CNC(=O)[C@H](Cc1ccccc1)NC(=O)[C@H](CC(N)=O)NC(=O)[C@@H]1CCCN1C(=O)[C@H](CO)NC(=O)[C@H](CO)NC(=O)[C@H](Cc1c[nH]cn1)NC(=O)[C@H](CCCNC(=N)N)NC(=O)[C@H](CC(C)C)NC(=O)[C@H](Cc1ccccc1)NC(=O)[C@H](Cc1c[nH]cn1)NC(=O)[C@H](C)NC(=O)[C@H](CC(C)C)NC(=O)[C@H](CCCNC(=N)N)NC(=O)[C@H](CCC(N)=O)NC(=O)[C@@H](NC(=O)[C@H](C)NC(=O)[C@@H]1CSSC[C@H](NC(=O)[C@@H](N)CCCCNC(=O)COCCOCCNC(=O)CCCCCCCCCCCCCCCCCCC(=O)O)C(=O)N[C@@H](CC(N)=O)C(=O)N[C@@H]([C@@H](C)O)C(=O)N[C@@H](C)C(=O)N[C@@H]([C@@H](C)O)C(=O)N1)[C@@H](C)O)C(=O)N1CCC[C@H]1C(=O)N[C@@H](CO)C(=O)N[C@@H](CO)C(=O)N[C@H](C(=O)N[C@@H](CC(N)=O)C(=O)N[C@H](C(=O)NCC(=O)N[C@@H](CO)C(=O)N[C@@H](CC(N)=O)C(=O)N[C@H](C(=O)N[C@@H](Cc1ccc(O)cc1)C(N)=O)[C@@H](C)O)C(C)C)[C@@H](C)O
notes: also called 90; compound 90
B4: N^ε1-[2-[2-[2-[[2-[2-[2-[[(4S)-4-carboxy-4-(19-carboxynonadecanoylamino)butanoyl]amino]ethoxy]ethoxy]acetyl]amino]ethoxy]ethoxy]acetyl]-[Arg17,Pro21,Pro27,Glu35 … (peptide)
peptide: K([AEEA-AEEA-γGlu-C20 diacid])CNTATCATQRLANFLRHSSPNFGAIPSSTNVGSETY-NH2
modifications: disulfide 2-7; N-terminus assumed
SMILES: CC[C@H](C)[C@H](NC(=O)[C@H](C)NC(=O)CNC(=O)[C@H](Cc1ccccc1)NC(=O)[C@H](CC(N)=O)NC(=O)[C@@H]1CCCN1C(=O)[C@H](CO)NC(=O)[C@H](CO)NC(=O)[C@H](Cc1c[nH]cn1)NC(=O)[C@H](CCCNC(=N)N)NC(=O)[C@H](CC(C)C)NC(=O)[C@H](Cc1ccccc1)NC(=O)[C@H](CC(N)=O)NC(=O)[C@H](C)NC(=O)[C@H](CC(C)C)NC(=O)[C@H](CCCNC(=N)N)NC(=O)[C@H](CCC(N)=O)NC(=O)[C@@H](NC(=O)[C@H](C)NC(=O)[C@@H]1CSSC[C@H](NC(=O)[C@@H](N)CCCCNC(=O)COCCOCCNC(=O)COCCOCCNC(=O)CC[C@H](NC(=O)CCCCCCCCCCCCCCCCCCC(=O)O)C(=O)O)C(=O)N[C@@H](CC(N)=O)C(=O)N[C@@H]([C@@H](C)O)C(=O)N[C@@H](C)C(=O)N[C@@H]([C@@H](C)O)C(=O)N1)[C@@H](C)O)C(=O)N1CCC[C@H]1C(=O)N[C@@H](CO)C(=O)N[C@@H](CO)C(=O)N[C@H](C(=O)N[C@@H](CC(N)=O)C(=O)N[C@H](C(=O)NCC(=O)N[C@@H](CO)C(=O)N[C@@H](CCC(=O)O)C(=O)N[C@H](C(=O)N[C@@H](Cc1ccc(O)cc1)C(N)=O)[C@@H](C)O)C(C)C)[C@@H](C)O
notes: also called 25; compound 25
B5: N^ε1-[2-[2-[2-[[2-[2-[2-[[(4S)-4-carboxy-4-(19-carboxynonadecanoylamino)butanoyl]amino]ethoxy]ethoxy]acetyl]amino]ethoxy]ethoxy]acetyl]-[Arg17,Pro21,Pro27,His34 … (peptide)
peptide: K([AEEA-AEEA-γGlu-C20 diacid])CNTATCATQRLANFLRHSSPNFGAIPSSTNVGHNTY-NH2
modifications: disulfide 2-7; N-terminus assumed
SMILES: CC[C@H](C)[C@H](NC(=O)[C@H](C)NC(=O)CNC(=O)[C@H](Cc1ccccc1)NC(=O)[C@H](CC(N)=O)NC(=O)[C@@H]1CCCN1C(=O)[C@H](CO)NC(=O)[C@H](CO)NC(=O)[C@H](Cc1c[nH]cn1)NC(=O)[C@H](CCCNC(=N)N)NC(=O)[C@H](CC(C)C)NC(=O)[C@H](Cc1ccccc1)NC(=O)[C@H](CC(N)=O)NC(=O)[C@H](C)NC(=O)[C@H](CC(C)C)NC(=O)[C@H](CCCNC(=N)N)NC(=O)[C@H](CCC(N)=O)NC(=O)[C@@H](NC(=O)[C@H](C)NC(=O)[C@@H]1CSSC[C@H](NC(=O)[C@@H](N)CCCCNC(=O)COCCOCCNC(=O)COCCOCCNC(=O)CC[C@H](NC(=O)CCCCCCCCCCCCCCCCCCC(=O)O)C(=O)O)C(=O)N[C@@H](CC(N)=O)C(=O)N[C@@H]([C@@H](C)O)C(=O)N[C@@H](C)C(=O)N[C@@H]([C@@H](C)O)C(=O)N1)[C@@H](C)O)C(=O)N1CCC[C@H]1C(=O)N[C@@H](CO)C(=O)N[C@@H](CO)C(=O)N[C@H](C(=O)N[C@@H](CC(N)=O)C(=O)N[C@H](C(=O)NCC(=O)N[C@@H](Cc1c[nH]cn1)C(=O)N[C@@H](CC(N)=O)C(=O)N[C@H](C(=O)N[C@@H](Cc1ccc(O)cc1)C(N)=O)[C@@H](C)O)C(C)C)[C@@H](C)O
notes: also called 97; compound 97

Numbered stars: 1 amine (or outer) side, 2 acyl side, 3 side chain; on linkers, the order of the positions; unused ones are H or OH. Bridge positions count the residues as written; N and C are the ends. Side chains are listed from the residue outwards. Ends that are not written are not given here. * marks the point of attachment. C20 diacid = O=C(O)CCCCCCCCCCCCCCCCCCC(=O)*; γGlu = O=C(O)[C@H](CCC(=O)[*:2])N[*:1]; AEEA = NCCOCCOCC(=O)O

As usually defined, the IC50 is the concentration needed to halve the response being measured.

The target of this experiment is T1, human amylin receptor (amylin 3(a) …). Description: SPA displacement of 125I-rat amylin, hAmylin 3(a) receptor membranes. In outline: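 SPA beads with BHK Amylin 3(a)/CRE-luc cell membranes (35 ng/μL final) in 50 mM Hepes pH 7.4, 1 mM CaCl2, 5 mM MgCl₂, 0.1% OA, 0.02% Tween20.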
Background: Displacement assays read how much labelled ligand stays bound in the presence of the test substance.
Regarding B1, the concentration for half-maximal inhibition (IC50) was found to be 0.119 nM.

Regarding B2, the half-maximal inhibitory concentration (IC50) stood at 0.967 nM.

Regarding B3, the IC50 amounted to 0.061 nM.

As for B4, the IC50 was 0.768 nM.

For the molecule B5, the IC50 was determined as 0.568 nM.

Values taken from patent US20140087995A1 (published 2014).
